PMC5320947 (Angewandte Chemie (International ed. in English), 2016)

Legend:
[1] = tested on: fed blood glucose levels in C57BL/6J mice; format: in vivo
[2] = parameters: species or system mice; settings: mouse, in vivo

Substance	duration of blood glucose reduction after a single s.c. injection [1]	area under the curve (AUC) [2]	terminal elimination phase T1/2β [2]	total body clearance (CL) rate [2]
exendin–C–PMPC75k: exendin–4 C–terminal conjugate with zwitterionic PMPC, larger conjugate	up to 3 days	–	–	–
green fluorescent protein [native GFP]	–	14 %h/mL	4 h	7 mL/h
